Tests used:
LARP1 DM15 [1] = biological target: T1, LARP1 DM15 (Homo sapiens, UniProt Q6PKG0-3 796-946); assay: EMSA; Competition assays: 20 mM Tris pH 8, 150 mM NaCl, 10% glycerol, 1 mM DTT, 0.5 ug BSA, 0.5 ug tRNA, 30 min on ice, native gel; EMSA as in Lahr et al. 2015 with RNA <=200 pM; details: protein: recombinant
LARP1 DM15 [2] = biological target: T1, LARP1 DM15; assay: crystal structure; Competition assays: 20 mM Tris pH 8, 150 mM NaCl, 10% glycerol, 1 mM DTT, 0.5 ug BSA, 0.5 ug tRNA, 30 min on ice, native gel; EMSA as in Lahr et al. 2015 with RNA <=200 pM; details: protein: recombinant
eIF4E = eIF4E (Homo sapiens, UniProt P06730 1-217); assay: competition; outcompetes DM15 as pre-bound or competitor protein; Competition assays: 20 mM Tris pH 8, 150 mM NaCl, 10% glycerol, 1 mM DTT, 0.5 ug BSA, 0.5 ug tRNA, 30 min on ice, native gel; EMSA as in Lahr et al. 2015 with RNA <=200 pM; details: protein: recombinant; tags: His6-MBP removed by TEV; label: 32P in cap
Chain of eIF4E (P06730 whole entry): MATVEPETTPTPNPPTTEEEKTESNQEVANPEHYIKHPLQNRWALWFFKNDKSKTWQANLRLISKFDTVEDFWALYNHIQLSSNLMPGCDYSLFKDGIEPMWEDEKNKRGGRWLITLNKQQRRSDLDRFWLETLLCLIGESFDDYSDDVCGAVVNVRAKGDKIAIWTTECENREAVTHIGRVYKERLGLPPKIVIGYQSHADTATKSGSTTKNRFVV

B1: m7Gppp-RPL32 42mer (ssRNA)
RNA: CUCUCUUCCUCGGCGCUGCCUACGGAGGUGGCAGCCAUCUCC
modifications: 5' m7Gppp cap
Does B1 bind (LARP1 DM15 [1]; label: 32P in cap)?
Result: binds

B2: m7Gppp-RPS6 42mer (capped TOP) (ssRNA)
RNA: CCUCUUUUCCGUGGCGCCUCGGAGGCGUUCAGCUGCUUCAAG
modifications: 5' m7Gppp cap
With B2 as the binder, how does the Kd (LARP1 DM15 [1]; label: 32P in cap) read?
The Kd was 21 nM.

B3: RPS6 8mer (ssRNA)
RNA: CUUUUCCG
Does B3 bind (LARP1 DM15 [2])?
Result: binds

B4: G-RPS6 (uncapped non-TOP) (ssRNA)
RNA: GCCUCUUUUCCGUGGCGCCUCGGAGGCGUUCAGCUGCUUCAAG
Which Kd (LARP1 DM15 [1]; label: 5' 32P) does the source give for B4 here?
Its Kd is 7500 nM.

B5: m7Gppp-G-RPS6 (capped non-TOP) (ssRNA)
RNA: GCCUCUUUUCCGUGGCGCCUCGGAGGCGUUCAGCUGCUUCAAG
modifications: 5' m7Gppp cap
With B5 as the binder, how does the Kd (LARP1 DM15 [1]; label: 32P in cap) read?
Its Kd is 2000 nM.

Does B5 bind (eIF4E)?
Result: binds

From publication PMC5419741, “La-related protein 1 (LARP1) binds the mRNA cap, blocking eIF4F assembly on TOP mRNAs”
